According to patent US8697386B2, “Methods and compositions for modulating hepsin activation of macrophage-stimulating protein” (Genentech, Inc., priority 2009, dated 2014):
* marks the point of attachment. CH2Cl = ClC*

Tests used:
[1] = target: T1, cell surface expressed hepsin in LnCap-34 cells (Homo sapiens, UniProt P05981); assay: Pro-MSP activation by cell surface expressed hepsin in LnCap-34 cells; assay type: cell-based; settings: 1 μM inhibitor, 15 minutes preincubation, 125I-pro-MSP 25 μg/ml, 3 hours, 37° C.
T1 construct: expressed in transfected cells; host or cells: LnCaP-34 cells
T1 sequence (P05981 whole entry): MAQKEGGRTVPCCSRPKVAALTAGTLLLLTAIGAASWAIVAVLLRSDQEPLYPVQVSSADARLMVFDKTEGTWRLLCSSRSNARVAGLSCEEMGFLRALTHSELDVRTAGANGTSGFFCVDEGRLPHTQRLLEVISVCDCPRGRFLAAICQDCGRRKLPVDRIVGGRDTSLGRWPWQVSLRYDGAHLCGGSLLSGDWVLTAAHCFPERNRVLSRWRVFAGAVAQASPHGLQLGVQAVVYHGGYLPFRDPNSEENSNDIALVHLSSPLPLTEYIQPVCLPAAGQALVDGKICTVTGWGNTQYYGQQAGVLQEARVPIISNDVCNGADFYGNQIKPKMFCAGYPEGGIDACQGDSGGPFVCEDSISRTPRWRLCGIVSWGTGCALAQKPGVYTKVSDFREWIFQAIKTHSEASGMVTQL
Procedure: Confluent LnCap-34 cells cultured in 24-well plates were washed with serum-free RPMI-1640 medium and were incubated either alone or with different anti-hepsin inhibitors (1 μM of anti-hepsin antibody Fab25/1 μM of KD1/1 μM of Ac-KQLR-cmk (‘KLQR” disclosed as SEQ ID NO:10)) in serum-free RPMI-1640 medium for 15 minutes at 37° C. prior to addition of 125I-labeled pro-MSP (25 μg/ml). After incubation for 3 hours at 37° C., aliquots were removed and analyzed by SDS-PAGE (4-20% gradient gel) (Invitrogen, Carlsbad, Calif.) followed by exposure to X-ray films.

Ron signaling pathway = assay: Immunoblot for phosphorylated downstream kinases in A2780 cells overexpressing human Ron; assay type: cell-based; settings: pro-MSP 10 and 50 ng/ml, 10 nM hepsin, 1 hour
Procedure: Immunoblot for the detection of phosphorylated kinases: A human ovarian carcinoma cell line (A2780) overexpressing human Ron was used to study the phosphorylation of Ron and other downstream kinase. Cells at a density of 2×10^5 cells/well were cultured in 12-well plate and serum-starved for 24 hours. The cells were then stimulated with either pro-MSP (10 and 50 ng/ml) alone or in presence of 10 nM Hepsin for 1 hour. Mature MSP from a commercial source and hepsin were used as controls. Samples were prepared by washing cells twice with cold PBS followed by addition of 200 ul lysis buffer. Samples were then analyzed by SDS/PAGE on 4-12% Tris-glycine gels (Invitrogen, Carlsbad, Calif.). Proteins were transferred onto nitrocellulose membranes and subsequently treated with anti-Ron antibody or anti-phospho-AKT antibody or anti-phospho-MAPK antibody or anti-phospho-S6 antibody, overnight at 4° C. After washing, membranes were incubated with IRDye800-conjugated goat anti-mouse IgG (Rockland, Gilbertsville, Pa.) and AlexaFluor 680 goat anti-rabbit IgG (Invitrogen) for 1 h. Proteins were detected with the Odyssey Infrared Imaging System (LI-COR Biosciences, Lincoln, Nebr.).

Substance | blocking of pro-MSP proteolytic cleavage by cell surface hepsin [1] | phosphorylation of MAP kinase and S6 kinase (activation of Ron signaling pathway) (Ron signaling pathway)
KD1: Kunitz domain 1 (KD1) of HAI-1 or HAI-1B, hepsin inhibitor (TEDYCLASNKVGRCRGSFPRWYYDPTEQICKSFVYGGCLGNKNNYLREEECILACRGV) | effectively blocked | –
Ac-KQLR-chloromethylketone (Ac-KQLR-CH2Cl; SMILES CC(=O)N[C@@H](CCCCN)C(=O)N[C@@H](CCC(N)=O)C(=O)N[C@@H](CC(C)C)C(=O)N[C@@H](CCCNC(=N)N)C(=O)CCl) [reference compound] | effectively blocked | –
hepsin: extracellular domain of the human recombinant hepsin, type II transmembrane serine protease | – | Neither hepsin nor pro-MSP alone was effective
